Data on three molecules can be found in article PMC3333781, “Systematic mapping of two component response regulators to gene targets in a model sulfate reducing bacterium”.

What all share (experiment): EMSA; 10 mM Tris-HCl pH 7.5, 1 mM DTT, 50 mM KCl, 5 mM MgCl2, 25% glycerol, 1 ug/ml poly dI-dC, 50-100 fmol biotinylated DNA, 25-30 C, 20 min
Holding throughout (settings): protein: recombinant; tags: C-terminal V5-6xHis; chain copies: 2; label: 5'-biotin top strand
Background: A gel shift assay detects complexes by their altered migration in electrophoresis.

For series [1], the target named is T1, DVU1419 response regulator (Desulfovibrio vulgaris Hildenborough, UniProt Q72C65 1-459).
T1 sequence: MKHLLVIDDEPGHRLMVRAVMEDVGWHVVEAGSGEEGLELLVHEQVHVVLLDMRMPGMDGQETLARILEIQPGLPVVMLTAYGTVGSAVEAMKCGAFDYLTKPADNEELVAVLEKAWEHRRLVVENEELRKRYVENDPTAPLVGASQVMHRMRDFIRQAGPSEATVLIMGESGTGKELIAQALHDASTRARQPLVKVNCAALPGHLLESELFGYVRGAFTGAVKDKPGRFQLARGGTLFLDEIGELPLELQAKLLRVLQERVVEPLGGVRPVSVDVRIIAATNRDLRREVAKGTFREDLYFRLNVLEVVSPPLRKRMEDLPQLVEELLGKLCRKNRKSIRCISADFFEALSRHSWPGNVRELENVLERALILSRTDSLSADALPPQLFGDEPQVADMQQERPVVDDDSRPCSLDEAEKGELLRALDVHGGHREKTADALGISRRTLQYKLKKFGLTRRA

Series [2] deals with T2, DVU1063 response regulator (Desulfovibrio vulgaris Hildenborough, UniProt Q72D66 1-479).
T2 sequence: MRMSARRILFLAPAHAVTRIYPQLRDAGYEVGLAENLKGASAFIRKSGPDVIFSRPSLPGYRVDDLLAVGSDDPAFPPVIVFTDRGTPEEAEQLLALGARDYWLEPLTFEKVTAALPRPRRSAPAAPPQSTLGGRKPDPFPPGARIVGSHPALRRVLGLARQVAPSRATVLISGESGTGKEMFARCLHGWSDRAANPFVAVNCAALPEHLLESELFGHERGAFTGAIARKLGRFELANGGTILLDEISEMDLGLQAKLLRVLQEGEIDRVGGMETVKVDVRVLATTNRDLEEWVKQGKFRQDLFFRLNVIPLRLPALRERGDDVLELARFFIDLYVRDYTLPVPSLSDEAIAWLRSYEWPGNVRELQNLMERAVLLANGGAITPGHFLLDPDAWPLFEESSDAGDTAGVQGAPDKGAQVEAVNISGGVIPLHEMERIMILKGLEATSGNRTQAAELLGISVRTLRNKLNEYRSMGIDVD

Series [3] addresses T3, DVU2114 response regulator (Desulfovibrio vulgaris Hildenborough, UniProt Q72A83 1-462).
T3 sequence: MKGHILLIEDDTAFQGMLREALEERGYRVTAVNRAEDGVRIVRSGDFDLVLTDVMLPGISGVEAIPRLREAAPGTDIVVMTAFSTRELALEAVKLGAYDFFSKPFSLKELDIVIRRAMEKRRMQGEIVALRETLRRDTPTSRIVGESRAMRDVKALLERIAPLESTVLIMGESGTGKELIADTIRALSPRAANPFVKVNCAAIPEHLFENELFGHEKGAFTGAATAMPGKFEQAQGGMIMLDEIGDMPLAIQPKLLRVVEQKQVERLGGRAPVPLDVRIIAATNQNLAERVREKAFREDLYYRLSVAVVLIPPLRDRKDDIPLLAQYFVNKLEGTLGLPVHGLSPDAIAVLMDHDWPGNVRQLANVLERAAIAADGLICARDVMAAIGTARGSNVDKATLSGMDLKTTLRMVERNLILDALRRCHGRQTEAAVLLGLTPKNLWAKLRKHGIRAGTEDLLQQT

B1: DVU1418 motif mut (dsDNA)
DNA 1: GCCGTGGCGTACTATGCCATCGTTTGCTCGTTCATGGTGC
DNA 2: GCACCATGAACGAGCAAACGATGGCATAGTACGCCACGGC
In the case of B1, the binding result in series [1] is “no binding”.

B2: DVU1032 motif mut (dsDNA)
DNA 1: GGCATGGTCGGGCACGTGTTTTCGATTGTATCCTG
DNA 2: CAGGATACAATCGAAAACACGTGCCCGACCATGCC
Take B2: the binding result in series [2] is reported as “no binding”.

B3: DVU2116 motif mut (dsDNA)
DNA 1: ACCGGGCCACTACACAAATCAATGCTGCCCATCGC
DNA 2: GCGATGGGCAGCATTGATTTGTGTAGTGGCCCGGT
With B3, the binding result in series [3] is listed as “no binding”.
